# From PMC7658359 (2020)
# B1: Arabidopsis histone H2A (HTA1)-H2B (HTB1) dimer (complex)
# chain 1: MAGRGKTLGSGGAKKATSRSSKAGLQFPVGRIARFLKAGKYAERVGAGAPVYLAAVLEYLAAEVLELAGNAARDNKKTRIVPRHIQLAVRNDEELSKLLGDVTIANGGVMPNIHNLLLPKKAGASKPQED
# chain 2: MAPRAEKKPAEKKTAAERPVEENKAAEKAPAEKKPKAGKKLPPKEAGDKKKKRSKKNVETYKIYIFKVLKQVHPDIGISSKAMGIMNSFINDIFEKLAQESSKLARYNKKPTITSREIQTAVRLVLPGELAKHAVSEGTKAVTKFTSS
# Experiments:
# Assay in all cases: ITC
# OsChz1-C mutant 2M = OsChz1-C mutant 2M (rice (Oryza sativa))
# OsChz1-C mutant 1M = OsChz1-C mutant 1M (rice (Oryza sativa))
# OsChz1-C mutant 3M = OsChz1-C mutant 3M (rice (Oryza sativa))
binder,measurement,setting,value
B1,Kd,OsChz1-C mutant 2M,259 nM
same,Kd,OsChz1-C mutant 1M,150 nM
same,Kd,OsChz1-C mutant 3M,146 nM
